Assay results from the supplement of paper PMC10567573.

B1: SLC25A39 (parent)
chain: LTSDLYAPMVAGALARLGTVTVIS
B2: RIPK4 (parent)
chain: VSVNAQTLDGRTPLHLAAQRGHYR

Variants of: B1
Experiment: protein stability index of a GFP-peptide fusion (GPS, HEK-293T) (PSI 1-6); higher = more stable
Conditions: c terminus: a fixed tail appended
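Also: lentivirally expressed fusions sorted by FACS into six bins by GFP to DsRed ratio, PSI derived from sequencing read proportions per bin multiplied by bin number.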

Protein stability index: each site, then its substitutions
V22: Y 1.6; T 2.04; C 3.43; R 2.82; D 1.49; P 1.61; S 2.31; E 2.08; F 2.47; K 1.74; A 2.58; N 1.11; L 3.04
S24: N 1.91; Q 1.45; P 2.21; R 2.26; G 3; E 2.61; K 1.61; T 4.15; C 3.08; H 3.6; I 1.56; D 3.34; W 3.06
T19: D 1.76; Q 1.8; G 1.91; V 2.87; K 2.21; H 1.94
M9: C 1.65; G 1.6; Q 2.57; L 3.65; N 1.01; T 2.35; R 1.36; H 1.77; P 1.5; K 1.52; I 2.76; D 1.78; A 2.21; S 1.75; E 2.54; Y 3.86
Y6: F 3.72; R 1.47; M 2.09; Q 2.01; N 1.34; W 3.76; C 2.31; A 2.37; T 1.82; S 1.34; V 2.13; P 1.98; D 1.55; G 1.13; H 2.34; E 2
V20: K 2.05; F 2.09; S 2.26; N 2.54; G 1.99; P 1.45; W 1.77; E 2.43; T 1.02; Y 3.19; I 3.37; R 1.76; D 2.73; H 3.15
G18: A 2.61; R 2.66; P 2.57; K 2.53; D 2.53; W 3.57; T 3.39; H 4.48
T21: V 2.03; W 3.97; M 2.7; D 3.1; H 2.26; E 2.09; F 3.5; Q 2.95; N 2.79; R 2.12
L17: G 3.15; C 1.56; E 2.71; F 2.95; S 2.51; P 1.69; W 4.43; N 1.96; A 1.92; R 1.1; Y 2.12; H 2.7; D 2.47; V 2.22; I 3.23; T 1.52; K 1.75
A15: L 1.45; K 3.12; Q 3.66; S 3.49; D 1.93; R 2.1; T 3.55; G 2.69; E 1.39; F 2.6; P 1.97; N 1.87; M 4.42
R16: L 2.76; D 2.58; I 2.97; M 3.22; N 1.5; F 4.13; A 2.1; P 1.98; W 2.85; Y 2.35; S 2.41; E 1.76; Q 3.11
A11: Q 1.65; P 3.19; D 1.65; M 2.95; T 2.81; N 2.3; H 2.69; F 3.02; K 2.39; Y 4.45; L 2.5
V10: R 1.49; T 3.25; F 2.85; D 1.9; G 2.72; Y 2.63; C 3.02; W 2.29; N 1.96; H 2.45; A 3.92; K 2.15; E 1.21; Q 1.96; M 4.25; S 2.6; P 1.85
L5: Q 1.65; A 2.14; Y 3.05; N 1.89; H 1.34; G 2.8; E 1.69; P 2.31; I 1; D 1.89; R 2.09; K 3.21; M 2.95; T 1.48; C 3.99; S 2.12
A13: Q 2.61; T 1.75; C 2.73; N 2.09; H 2.47; D 1.74; M 3.17; V 2.79; P 1.16; R 1.79; K 3.56; S 1.38
I23: R 1.87; Q 2.56; S 1.95; G 2.18; Y 2.31; L 2.75; P 1.8; N 1.98; E 2.54; K 2.04; D 2.3
G12: S 1.53; Q 4.46; R 3.52; L 3.83; V 3.9; K 3.64; P 1.23; Y 2.21; H 2.64; I 3.04
P8: D 3.54; A 1.5; M 3.46; C 2.52; E 3.86; L 2.02; S 3.97; T 3.06; N 1.7; I 1.62; W 2.68
A7: N 1.97; S 2.38; K 1.61; D 1.17; C 2.42; Q 2.86; L 3.74; I 4.33; H 2.38; R 3.29; T 1.62; V 1.96; P 1.87
D4: Y 5.3
L14: K 1; D 1.83; S 1.69; W 5.23; Y 3.67; C 3.43; A 1.79; T 1.58; Q 1.53; V 2.83; G 2.76; P 2.24; E 1.91; F 3.32; R 1.72; H 1.12; N 1.69

Variants of: B2
Experiment: as above
Conditions: c terminus: a fixed tail appended

Protein stability index: each site, then its substitutions
V1: R 4.06; A 3.94; W 3.5; Y 3.59; Q 3.99; P 3.85; K 3.74; G 3.76; L 3.98; T 3.78; E 3.97; M 4.21; D 4.66; S 3.62; N 4.12; H 3.79; F 3.39; I 3.54; C 2.54
N4: Y 3.12; Q 3.41; H 3.46; L 2.69; P 3.42; M 2.66; C 3.18; V 2.53; T 3.04; E 3.17; A 3.17; W 2.06; I 2.44; S 2.86; K 3.51; D 3.86; F 2.06; R 3.21; G 3.3
S2: P 3.75; W 2.3; A 3.24; I 2.18; Q 3.22; L 2.86; G 3.97; R 3.33; C 2.93; V 2.22; D 4.08; M 2.89; Y 2.82; H 2.42; T 2.91; K 3.41; E 3.27; N 3.73; F 2.57
V3: A 3.85; T 3.53; Y 2.75; R 4.33; P 3.83; W 2.69; H 4.67; G 3.9; S 3.97; F 2.96; L 3.35; M 3.73; C 3.12; N 4.49; E 4.86; Q 4.22; I 2.67; K 3.6; D 4.13
